In PMC10433817:

Tested on: ThserRS (seryl-tRNA synthetase, GME12055) (Trametes hirsuta AH28-2)
Test: fluorescence polarization
Settings: 5 mM Mg2+; 25 mM HEPES pH 6.5, 5 mM MgCl2, 150 mM KCl, 1 mM DTT, 5% glycerol, 16 C, 30 min; probe 0.5 uM (EMSA) or 40 nM (FP); further truncations of the 32-bp probe gave …

“lacA promoter 32-bp minimal probe (-462 to -431)” gave a Kd of 920 nM.
